This note sets out measurements from the nanobody polyreactivity screen of Harvey et al. (2022).

This data set can be described thus: yeast display, Sf9 membrane polyspecificity reagent, FACS + sequencing; frameworks hold sequencing errors. In a few lines:
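Sorting gates, low and high (top ~1%), were placed on anti-HA fluorescence to track expression and on streptavidin fluorescence to track reagent binding. A clone's polyreactivity label is taken from the gate it came out of. The reagent was 10% biotinylated, detergent-solubilized Sf9 membrane, applied for 1 hour at 4 °C to galactose-induced yeast display cells.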
Turning to “QVQLVESGGGLVQAGGSLRLSCAASGSIFQVYAMGWYRQAPGKEREFVAAISYSGGGTYYADSVKGRFTISRDTAKNTVYLQMNSLKPEDSAVYYCAATEQYGRDSWSSYRIFPPYDDWGQGTQVTVSS”, the “polyreactivity (PSR sort gate)” value is listed as “low polyreactivity”. Under “QVQLVESGGGLVQAGGTLRLSCAASGLTFYRYAMGWYRQAPGKERELVATIRSGDGTYYADSVKGRFTISRDNAKNTVYLQMNSLKPEDTAVYYCAAKKVYRVYGRYEYWGQGTQVTVSS” stands “high polyreactivity”; under “QVQLVESGGGLVQAGGSLRLSCAASGRTFYYYAMGWYRQAPGKERELVATITKSSGSTSYADSVKGRFTISRDNAKNTVYLQMNSLKPEDSAVYSCARRIKWGKFKGWNYPAHNYWGQGTQVTVSS”, “high polyreactivity”; under “QVQLVESGGGLVQAGGSLRLSCAASGSTHVYAMGWYRQAPGKERELVAAISLNTGSTYYADSVKGRFTISRDNAKNTVYLQMNSLKPEDTAVYRLNYWGQGTQVTVSS”, “low polyreactivity”. Under “QVQLVESGGGLVQAGGSLRLSCAASGFIFAHNAMGWYRQAPGKARELVAAITSSGGSTYYADSVKGRFTISRDNAKNTVYLQKNSLKPEDTAVYYCNAYTYARRGYDYWGQGTQVTVSS” stands “high polyreactivity”; under “QVQLVESGGGLVQAGGSLRLSCAASGSTFQSNAMGWYRQAPGKERELVATITQSGATTYYADSVKGRFTISRDNAKNTVYLQMNSLKPEDTAVYYCNVDTYQKRWFWLDLDGGYWGQGTQVTVSS”, “low polyreactivity”; under “QVQLVESGGGLVQAGGSLRLSCAASGSIFAGYTMGWYRQAPGKERELVATITRSGTSTFYADSVKGRFTISRDNAKNTVYLQMNSLKPEDTAVYYCAADVTARYDYWGQGTQVTVSS”, “high polyreactivity”. For the sequence “QVQLVDSRGGLVQAGGSLRLSCAASGLTFGPYAMGRYRQAPGKEREFVAAITWRGGRTNYADSVKGRFTMSRDNAKNTVYLQMNSLKPEDTAVYYCNAVISPHQWIRGGDSWGQGTQVTVSS”, the “polyreactivity (PSR sort gate)” value is recorded as “low polyreactivity”. As for “QVQLVESGGGLVQAGGSLRLSCAASGRTFAYNAMGWYRPAPGKERELVAAITGSGGRTYYADSVKGRFTISRDNAKNTVYLQMNSLKAEDTAVYYCAVGLPSRYDYWGQGTQVTVSS”, the entry is “low polyreactivity”; as for “QVQLVESGGGLVQAGGSLRLSCAASGYTFRYYAMVWYRQAPGKEREMVAAINGGDITNYADSVKGRFTISRDNAKNTVYLQMNSLKPVDTAVYYCAADGEDSLWTCYDYDYWGQGTQVTVSS”, “low polyreactivity”; as for “QVQLVESGGGLVQAGGSLRLSCSPSGSIFVSYTMGWYRQAPGKERELVAAISSGGSTYYADSVKGRFTITRDNAKNTVYLQMNSLKPEDTAVYYCARRLTREYDYWGQGTQVTVSS”, “low polyreactivity”. Under “QVQLQESGGGLVQAGGSLLSCAASGTISWVDEMGWYRQAPGNERELVAGIAGGGNTNYADSVKGRFTISRDNAKNTVYLQMNSLDTAVYYCAVVGFGGGTHIYWGQGTQVTVSS” stands “high polyreactivity”; under “QVQLVESGGGLVQAGGSLRLSCAASGFIFTPYAMGWYRQAPGKERELVAAISWIGGRTYYADSVKGRFTISRDNAKNTVYLQMHSLKPEDTAVYYCNARTHGWPYSRYYYWGQGTQVTVSS”, “high polyreactivity”; under “QVQLVESGGGLVQAGGSLRLICDDSGSILSYNTMGWYRQAPGKEREFVAGITYSGSRTYYADSVKGRFTISRDNAKNTVSLQMNSLKPVDTAVYYCAKRNYYRMYWGQGTQVTVSS”, “high polyreactivity”. As for “QVQLVESGGGLVQAGGSLRLSCAASGRTFFDYTMGWYRQAPGKERELVAAITGGDGSTYYADSVKGRFTISRDNAKNTVYLQMNSLKPEDTAVYYCAAGYTAGSYSLDADYYWGQGTQVTVSS”, the entry is “low polyreactivity”; as for “QVQLVESGGGLVQAGGSLRLSCAASGRTIDPNAMGWYRQAPGKERELVAAITRTGVRTYYADSVKGRFTISRDNAKNTVYLQMNSLKPEDTAVYYCNRYGARSNDYWGQGNQVTVSS”, “low polyreactivity”; as for “QVQLVESGGGLVQAGGSLRLSCAASGSTFYVNTMGWYRQAPGKERELVAAINWRGGSTYYADSVKWRFTISRDNAKNTVYLQMNSLKPEDTAVYYCAAYGFYRYVTAYIYDMDYWGQGTQVSVSS”, “low polyreactivity”.

On to “QVQLVESGGGLVQAGGSLRLSCAASGFIFTHYAMGWYRQAPGKERELVAAISRRGGSTYYADSVKGRFTISRDNAKNTVYLQMNSLKPEDTAVYYCAADNYDAWYWDYYWGQGTQVTVSS”, for which the “polyreactivity (PSR sort gate)” value is reported as “high polyreactivity”. Under “QVQLVESGGGLVQAGGSLRLSCAASGSIFGKYAMGWYRQAPGKERELVATINRGGGGTYYADSVKGRFTISRDNAKNTVYLQMNSLKPEDTAVYYWAVSYRSYVWYGYWGQGTQVTVSS” stands “high polyreactivity”; under “QVQLVESGGGLLQAGGSLRLSCAASGTIFAYYAMGWYRPAPEKERELVARITYSTDRTYYADSVKGRFTISRDNAKNTVYLQMNRLKPEDTAVYYCAVETWWGFKRYKFDYWGLGTQVTVSS”, “low polyreactivity”; under “QVQLVESGGGLVQAGGSLRLSCAASGRTLYSNAMGWYRQSPGKERELVAAISSRGGRTYYADSVKGRFTISRDNAKNTVYLQMNSLKPVDTAVYYCNAAYGTGRRQAKSDYWGQGTQVTVSS”, “high polyreactivity”. Turning to “QVQLVESGGGLVQAGGSLRLSCAASGSIFRYYTMGWYRQAPGKERELVAGINRGGRTYYADSVKGRYTISRDNAKNTVYLQMNSLKPEDTAVYYCAAVTYYGFDYWGQGTQVTVSS”, the “polyreactivity (PSR sort gate)” value is “high polyreactivity”. “QVQLVESGGGLVQAGGSLRLSCAASGSIFDIYAMGWYRQAPGKETELVAAISWNGGDTTYADSVKGRFTISRDNAKNTVYLQMNSLKPEDTAVYYCAADLGYWVADYYWGQGTQVTVSS”: the “polyreactivity (PSR sort gate)” value is reported as “high polyreactivity”. As for “QVQLVESGGGLVQAGGSLRLSCAASGITFYEYTMGWYRQAPGKETELVAVIRKTGGSTYYADSVKGRFTISRDNAKNTVYLQMNSLKPEDTAVYYCNARYGGSGRVPRSYDYWGQGTQVTVSS”, the entry is “high polyreactivity”. With “QVQLVESGGGLVQAGGSLRLSCAASGFTFVRYVMGWYRQAPGKERELVAAISRSGGSTHYADSVKGRFTISRDNAKYTVYLQMNSLKPEDTAVYYCAAASPRWPGQGDYWGEGTQVTVSS”, the “polyreactivity (PSR sort gate)” value is given as “high polyreactivity”. As for “QVQLVESGGGLVQAGGSLSLICAASGFIFLYYAMGWYRQAPGKERELVADISRGADTKYADSVKGRFTISRDNAKNTVYLQMNSLKPEDTAVYYCATDITTFWFPYPGVELGYWGQGTQVTVSS”, the entry is “low polyreactivity”.

As to “QVQLVESGGGLVQAGGSLRLSCAASGSTLRPYGMGWYRQATGKERELVPTIRSSSGRTYYADSVKGRFTISRDNAKNTVYLLMNSLKPDDTAVYYCNAKYVWYTQRDAYIYDYWGQGTQVTVSS”, the “polyreactivity (PSR sort gate)” value was “high polyreactivity”. Consider “QVQLVESGGGLVQAGGSLRLTCAASGSTLDYYAMGWYRQAPGKERELVAAITQSGASTYYADSVKGRFTISRDNAKNPVYLQMNSLKPEDTAVYYCAAEDYTIYGGEYDYWGQGTQVTVSS”, for which the “polyreactivity (PSR sort gate)” value is given as “low polyreactivity”. Regarding “QVQLVESGGGLVQAGGSLRLSCAASGRILYVYVMGWYRQGPGKASELVAAISRRGGGTSYADSVKGLFTISRDNAKNTVYLQLNSLKPEDTTVYYCAASSTEFPTDYLAIDDYWGQGTQVTVSS”, the “polyreactivity (PSR sort gate)” value is listed as “low polyreactivity”. Regarding “QVQLVESGGGLVQAGGSLRLSCAASGSTFRYYTMGWYRQAPGKERELVARISWSGGSTYYADSVKGRFTISRDNAKNTVYLQMNSLKPEDTAVYYCNAVLFYFQTRDYWGQGTQVTVSS”, the “polyreactivity (PSR sort gate)” value is “high polyreactivity”.
